From patent US20240141007A1
Values joined by “and” are separate entries in the source; they are usually repeats but may differ in a detail not shown here. Equal values may be shown once.

Tests used:
[1] = target: UCM23; assay: cell-based or functional assay
[2] = target: UCM22; assay: cell-based or functional assay

B1: MMP-7 (enzyme, UniProt P09237 95-267, looked up)
chain: YSLFPNSPKWTSKVVTYRIVSYTRDLPHITVDRLVSKALNMWGKEIPLHFRKVVWGTADIMIGFARGAHGDSYPFDGPGNTLAHAFAPGTGLGGDAHFDEDERWTDGSSLGINFLYAATHELGHSLGMGHSSDPNAVMYPTYGNGDPQNFKLSQDDIKGIQKLYGKRSNSRKK
B1 was tested, and the Est. kcat/KM (cleavage efficiency) [1] was 2000 M^-1S^-1 and 2100 M^-1S^-1 and the Est. kcat/KM (cleavage efficiency) [2] was 1800 M^-1S^-1 and 2100 M^-1S^-1.
